In the domain aggregation screens of Martell et al. (2025):

Assay: soluble fraction after stress (log2 fold change); higher = more stays soluble; pooled small domains, quantitative proteomics
Settings: stress: pH 4
In short: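 Small protein domains from pooled custom libraries were exposed to pH 4, then quantified with high-throughput quantitative proteomics. The fold change in how much of each domain remains soluble is read as aggregation propensity. It is given as log2, with higher values meaning more stayed soluble.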

HMKGSPFSQLPKEKKKRILQAAIEVFAQNDYKHASTDEIASRAGISKGLLFYYFHDKKTLYFYLGEYLKR
soluble fraction (log2): 0.173

HMAPDDTAVWSAFIGWFRTAPDGPNPLGAYAAKLGEEGLDAAEVGRRMTVIVRLFAEKPEGAEVFYDRTYA
soluble fraction (log2): -0.456

HMSDTLPRLLWNFQMAKRLDEMNGAEKRRYQLVLIHPQASEKERDYASSFAHQARMLGIEVAIRDS
soluble fraction (log2): -0.139

HMGEAIPVPDLKHKALTDAEHLVHELGLEIQVVDTGYVKSLPADYILGQSLAPGEKVKSGHIIYVTINSP
soluble fraction (log2): 0.0193

HMYLELVTKEGGSFDEPDYWGRRKLAYEIAGKTEGNYVVVKYTAEPATSDELDRVLNLNESVIRTKILRK
soluble fraction (log2): -0.461

HMSQRINLNSASIEDMQSLDISNEKIDSIIDYRNRYGNIHNIYELLKIPGITIGDIHSIRNAVTVEIPH
soluble fraction (log2): -0.472

HMVQARDQNIEEGRQLVLRELDRLDLVNESLTDVAADMNMKSVEDMYAAIGAGDLRVGQVVHAVLKRAD
soluble fraction (log2): -0.218

HMKSATGKIPDFISDLPVDEFVRELIVTNAFQPLNKFKEVQNHIGSALKIYVDELTEKRANGTVHILYSHK
soluble fraction (log2): -0.324

HMSPAVEDYLEQIHNLIAQKGYARVVDIAGNLKISQASVTNMIQRMDADGLVVYERYRGVVLTETGRK
soluble fraction (log2): -0.456

HMGDGAWQQGEGGRWWYKYNNGTYPKDRVVTIGGKKYGFDSEGWMLSDTTKAFGGTTYSFAADGVATAQA
soluble fraction (log2): -0.247

HMEKKSKLVLAVLQGSDSDNTIRNLNERGFMVTVLSSTGGFLKKKSTTVMIGVEEDRLEEALDVLQKYAG
soluble fraction (log2): -0.617

HMLSYDDTVVIGRNLLENAMKQKNIALEQLTDEVLARLAKELQVESVEAMYAGIGSGKRPSSFIINRLEAH
soluble fraction (log2): -0.454

HMSSGSLLTEREIEILAEMAKGLTNKAIGEKLFISVATVKTHILNIYRKLEVSSRVTAVNKAKQMRL
soluble fraction (log2): -0.11

HMEMLQENIRNLRKAKGWSQEELAIKLNVVRQTVSKWEKGLSVPDSQMLIRIADELDTTVAILLG
soluble fraction (log2): 0.253

HMEANAYFDAYPDVAAEWARLSGSDEGKATLSAIGVTTPQQFAQYHYTTFGSKENRNAPVGYTP
soluble fraction (log2): -0.47

HMKHRTQMDIQQLPAIEGKGGFEYKISIIHLSTRIKYSEIHDNYNTTTIAKVYENAIERLPPF
soluble fraction (log2): -1.13

HMVYVPTKAEVSQQFQDASKARFDERYAIVELADGRRTMAPLAFLTKADHAWLKQLASTSPLPKGK
soluble fraction (log2): 0.0133

HMLPLLAFDEKLNRLGYGGGFYDRTLASLAHKGNTITAIGIAYESQKMDKVPTGYFDRPLDGVLTPSGLIM
soluble fraction (log2): -0.0764

HMLSTGIIIGDNVALRKTASSNGGIITRLDEGTVVKILASNVNAEWYQVEAGTKTGYVNRLYVNID
soluble fraction (log2): -0.345

HMIMNDIQAKVLEIAETKDLGSITYYRLSKMLGVDHPYRVKYAIDKLIEKGLLTAKSDGSITKAI
soluble fraction (log2): 0.204

HMASIATLTVKALGGASDVVIRDKDGRIIWADRLPAGQSHRVFGHAPFNVAASHASRVQLSLLGKDVGRV
soluble fraction (log2): -0.147

HMSFDENEALRKALDVFWEKGYDGTSLSDLTEAMGINKPSLYATFGNKDQLFLKAIEMYENR
soluble fraction (log2): -1.44

HMNVNVSFTQLRHKAEHAIQAKNWSEARNLLTLATLMRPTHRNVARRLKAVEQRNRLFRRLLLILTHRKV
soluble fraction (log2): -0.229

HMPDLSEDEEKIVSLLRDNNDLNVNIIVMRTQLPSATVTSSLFSLELKGVVRMYAGGMYHLM
soluble fraction (log2): 0.0385

HMPKNVEVPNVVGLSLPMAKLRLTQLGLHIVVRDSVWSETGQPNTILDQDPQPGKKIKPESTVYVKVN
soluble fraction (log2): ≥ 0.43

HMALPRYFFRTRENGAVLFKTPVNNHQNRLEMHQIAAINIRNETVKPLGDTVLTDEETELIADWMRERKTV
soluble fraction (log2): -0.596

HMNLDPHVVGHRLRDLRTRRDLTLADVAAETDISVSTLSRLESGSRRATLELLVPLARTYRVTLDELVDA
soluble fraction (log2): -0.353

HMGAGEQMLPKVMFAEGDRVVHKVFGEGTVVTVDRPAQTYDIQFDKLRGTRRIMFRAELEGI
soluble fraction (log2): -0.922

HMVVRRLPFGFSKRFGVLVVPGTSNPVELLYREDASMQSLLEARRVVAQPVAFKKTDVESFNAQLARAHEN
soluble fraction (log2): -0.122

HMTAIWKTITATLTHDIATGKYAPGDRLPTEAQLAARFGVNRHTVRRAISDMNESGLTYSRRGAGVFVAQ
soluble fraction (log2): ≥ 0.43

HMQITTVSPKNYAEAELIGQRFREGNPVVMDLSKLDSDLGQRLVDFASGLVFALNGTVERIAKKVFLLSP
soluble fraction (log2): -0.748

HMNFSRQREIIYEQVRNFPVHPTAEEVYRALKNDNPNLSLGTVYRNLNQLSEAGMLLKIPIADGSDRFDGR
soluble fraction (log2): -0.56

HMVGEPEPIRYSRFLDEMKSGKLDSVVIQGDTILGVRKDKSQFKTVNPETDYSALIGALDKAGVGIEGRA
soluble fraction (log2): 0.149

HMDLPREKRIEIGLTYIYGIGLKTSQKILAATGIDPNTRVKDLDETTVSKLREYIDHNYRVEGELRS
soluble fraction (log2): -0.217

HMGISQAQAMQALRKLIEEEDKHTPLSDQTLMERLKAAGIPLARRTIAKYRESLGIPSAAQRK
soluble fraction (log2): -0.0327

HMSDYKSYLQELVQTDKKSLSYNVVKETGPAHDKTFEVEVEVDGIIYAHGVGKSKKEAEQNAAKNAIMISA
soluble fraction (log2): -0.24

HMVTDSGEIEKLVDEVIDNNPDQVQQFREGKQQVLSYLVGQAMKLSRGKANPNQVNQFLRDKL
soluble fraction (log2): 0.152

HMKMQPVISQGVLYINNVTDVRTIEVFDISGRIVADAAASTTVNIAHLNEGPYIVKVTTVNGIESIKILNK
soluble fraction (log2): -0.889
